The target in assay [1] is α4β1 (R&D Systems #5668-A4) (UniProt P13612). Nature of the assay: competition ELISA vs VCAM-1.
For assay [2], the target named is human α4β7 integrin on cells (human) (UniProt P13612). Nature of the assay: RPMI8866 adhesion to MAdCAM-1.
For assay [3], the target named is rh integrin α4β7 (R&D Systems #5397-A30) (human) (UniProt P13612). As to the kind of experiment: competition ELISA vs MAdCAM-1.
In assay [4] the target is mouse α4β7 integrin on TK1 cells (mouse) (UniProt Q00651). Nature of the assay: TK1 adhesion to MAdCAM-1.
Sequence of mouse α4β7 integrin on TK1 cells (mouse) (Q00651 41-1039, chain 1 of 2): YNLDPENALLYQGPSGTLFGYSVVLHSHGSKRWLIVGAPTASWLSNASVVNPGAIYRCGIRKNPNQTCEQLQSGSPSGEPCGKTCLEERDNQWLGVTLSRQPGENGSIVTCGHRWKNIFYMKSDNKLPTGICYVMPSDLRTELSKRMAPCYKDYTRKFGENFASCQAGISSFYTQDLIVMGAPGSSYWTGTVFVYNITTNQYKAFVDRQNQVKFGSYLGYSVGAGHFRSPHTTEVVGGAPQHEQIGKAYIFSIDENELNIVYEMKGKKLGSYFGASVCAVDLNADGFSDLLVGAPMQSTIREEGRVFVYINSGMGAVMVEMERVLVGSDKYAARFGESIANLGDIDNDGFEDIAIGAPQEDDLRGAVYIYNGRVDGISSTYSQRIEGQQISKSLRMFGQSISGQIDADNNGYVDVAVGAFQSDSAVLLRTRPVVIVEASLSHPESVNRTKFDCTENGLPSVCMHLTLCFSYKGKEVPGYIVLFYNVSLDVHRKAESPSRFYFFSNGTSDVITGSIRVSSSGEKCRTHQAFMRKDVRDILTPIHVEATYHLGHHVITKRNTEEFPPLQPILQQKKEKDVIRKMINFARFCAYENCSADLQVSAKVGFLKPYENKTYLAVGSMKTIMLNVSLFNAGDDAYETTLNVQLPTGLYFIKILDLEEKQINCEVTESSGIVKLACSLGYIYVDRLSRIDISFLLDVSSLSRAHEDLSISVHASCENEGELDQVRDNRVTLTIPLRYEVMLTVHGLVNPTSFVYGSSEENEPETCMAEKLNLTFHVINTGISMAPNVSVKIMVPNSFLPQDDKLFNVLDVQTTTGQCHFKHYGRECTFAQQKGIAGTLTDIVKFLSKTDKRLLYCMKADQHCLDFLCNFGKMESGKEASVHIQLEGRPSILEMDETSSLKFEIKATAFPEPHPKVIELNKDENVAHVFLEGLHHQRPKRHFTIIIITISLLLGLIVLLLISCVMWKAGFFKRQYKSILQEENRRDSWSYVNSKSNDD
Sequence of mouse α4β7 integrin on TK1 cells (mouse) (P26011 20-806, chain 2 of 2, further chain): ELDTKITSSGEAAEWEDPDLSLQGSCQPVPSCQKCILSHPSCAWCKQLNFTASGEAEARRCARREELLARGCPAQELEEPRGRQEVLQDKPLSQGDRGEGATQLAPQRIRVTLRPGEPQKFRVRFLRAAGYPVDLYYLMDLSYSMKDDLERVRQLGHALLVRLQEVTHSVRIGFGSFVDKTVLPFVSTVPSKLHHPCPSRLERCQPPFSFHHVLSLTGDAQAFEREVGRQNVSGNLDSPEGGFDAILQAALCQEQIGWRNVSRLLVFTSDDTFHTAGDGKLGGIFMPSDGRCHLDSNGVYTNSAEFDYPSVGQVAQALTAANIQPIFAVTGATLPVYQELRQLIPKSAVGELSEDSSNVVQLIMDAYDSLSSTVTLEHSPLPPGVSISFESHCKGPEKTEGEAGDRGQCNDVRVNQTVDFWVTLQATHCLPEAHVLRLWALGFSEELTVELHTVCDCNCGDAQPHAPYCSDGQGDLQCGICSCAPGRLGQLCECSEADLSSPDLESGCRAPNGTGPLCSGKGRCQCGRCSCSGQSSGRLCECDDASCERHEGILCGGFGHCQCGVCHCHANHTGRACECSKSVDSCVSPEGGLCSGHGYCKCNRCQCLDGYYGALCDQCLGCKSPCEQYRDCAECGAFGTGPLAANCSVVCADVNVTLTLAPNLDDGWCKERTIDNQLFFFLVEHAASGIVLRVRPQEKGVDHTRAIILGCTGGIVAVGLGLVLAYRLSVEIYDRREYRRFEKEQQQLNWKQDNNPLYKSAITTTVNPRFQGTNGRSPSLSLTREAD
Assay [5] concerns the target human α4β7 integrin on cells (human) (UniProt P13612). Nature of the assay: PBMC memory T cell adhesion.

Bridge positions count the residues as written; N and C are the ends. Square brackets hold non-standard residues; d marks the D form. Bip = N[C@@H](Cc1ccc(-c2ccccc2)cc1)C(=O)O; 1Nal = N[C@@H](Cc1cccc2ccccc12)C(=O)O; 2Nal = N[C@@H](Cc1ccc2ccccc2c1)C(=O)O; NMeR = CN[C@@H](CCCNC(=N)N)C(=O)O; Tic = O=C(O)[C@@H]1Cc2ccccc2CN1; β3hE = N[C@@H](CCC(=O)O)CC(=O)O; NMeK = CN[C@@H](CCCCN)C(=O)O; Pen = CC(C)(S)[C@H](N)C(=O)O; dNMeK = CN[C@H](CCCCN)C(=O)O

For Ac-[Pen][NMeR]SDTL[Pen][Bip]E[dK]-NH2 (disulfide 1-7 (inferred); also: homodimer via DIG) [SEQ ID NO: 134], the figures for the 50% inhibitory concentration (IC50) in assay [1], in assay [2] and in assay [3] were greater than 100 nM, less than 10 nM and less than 10 nM, respectively.

In the case of Ac-[Pen][NMeR]SDTL[Pen][1Nal]E[dNMeK]-NH2 (disulfide 1-7; also: dimer via DIG) [SEQ ID NO: 44], the IC50 in assay [4] was less than 10 nM; in assay [1], greater than 100 nM; in assay [2] it was less than 10 nM; in assay [3] it was less than 10 nM.

In the case of Ac-[Pen][NMeR]SDTL[Pen][1Nal]E[dK]-NH2 (disulfide 1-7; also: dimer via DIG) [SEQ ID NO: 24], the IC50 in assay [1] is greater than 100 nM; in assay [2], less than 10 nM; in assay [3], less than 10 nM.

For Ac-[Pen][NMeR]SDTL[Pen][2Nal]E[dK]-NH2 (disulfide 1-7; also: dimer via DIG, attachment site not given here) [Peptide 212], the IC50 came out at 2.5 nM in assay [4], 70 nM in assay [1], 2.5 nM in assay [2] and 2 nM in assay [3].

With Ac-[Pen][NMeR]SDTL[Pen][1Nal][β3hE][NMeK]-NH2 (disulfide 1-7 (inferred); also: dimer via DIG linker) [SEQ ID NO: 142], the IC50 in assay [5] is greater than 50 nM; in assay [1], greater than 500 nM; in assay [2] it was less than 10 nM; in assay [3], less than 10 nM.

Take Ac-[Pen][NMeR]SDTL[Pen][1Nal][dE][dK]-NH2 (disulfide 1-7; also: dimer via DIG) [SEQ ID NO: 32]: the IC50 in assay [1] was greater than 100 nM; in assay [2], greater than 10 nM; in assay [3] it was less than 10 nM.

On to Ac-[Pen][NMeR]SDTL[Pen][Bip][β3hE][NMeK]-NH2 (disulfide 1-7 (inferred); also: dimer via DIG linker) [SEQ ID NO: 150], for which the IC50 in assay [4] was less than 10 nM; in assay [1] it was greater than 1000 nM; in assay [2], less than 10 nM; in assay [3], less than 10 nM.

Ac-[Pen][NMeR]SDTL[Pen][2Nal]E[dNMeK]-NH2 (disulfide 1-7; also: dimer via DIG) [SEQ ID NO: 41]: the IC50 is greater than 100 nM in assay [1], less than 10 nM in assay [2] and less than 10 nM in assay [3].

Ac-[Pen][NMeR]SDTL[Pen][Tic][β3hE]-NH2 (disulfide 1-7 (inferred)) [SEQ ID NO: 154]: the IC50 in assay [4] was greater than 1000 nM; in assay [1], greater than 1000 nM; in assay [2], greater than 100 nM.

Take Ac-[Pen][NMeR]SDTL[Pen][1Nal][dE][dNMeK]-NH2 (disulfide 1-7; also: dimer via DIG) [SEQ ID NO: 38]: the IC50 in assay [1] was greater than 100 nM; in assay [2], less than 10 nM; in assay [3] it was less than 10 nM.

Regarding Ac-[Pen][NMeR]SDTL[Pen][2Nal][β3hE][dK]-NH2 (disulfide 1-7 (inferred); also: homodimer via DIG) [SEQ ID NO: 137], the IC50 in assay [1] was greater than 1000 nM; in assay [2] it was less than 10 nM; in assay [3], less than 10 nM.

B1: SEQ ID NO: 18 (peptide)
peptide: Ac-[Pen][NMeR]SDTL[Pen][1Nal]E[dNMeK]-NH2
modifications: disulfide 1-7
SMILES: CC(=O)N[C@@H]1C(=O)N(C)[C@@H](CCCNC(=N)N)C(=O)N[C@@H](CO)C(=O)N[C@@H](CC(=O)O)C(=O)N[C@@H]([C@@H](C)O)C(=O)N[C@@H](CC(C)C)C(=O)N[C@H](C(=O)N[C@@H](Cc2cccc3ccccc23)C(=O)N[C@@H](CCC(=O)O)C(=O)N(C)[C@H](CCCCN)C(N)=O)C(C)(C)SSC1(C)C
Consider B1, for which the results for the half-inhibitory concentration (IC50) in assay [1] and in assay [3] were greater than 500 nM and greater than 10 nM, respectively.

In the case of Ac-[Pen][NMeR]SDTL[Pen][2Nal]Y[dK]-NH2 (disulfide 1-7; also: dimer via DIG) [SEQ ID NO: 23], the results for the IC50 in assay [1] and in assay [2] were greater than 100 nM and less than 10 nM, respectively.

As to Ac-[Pen][NMeR]SDTL[Pen][2Nal][dE][dK]-NH2 (disulfide 1-7; also: dimer via DIG) [SEQ ID NO: 33], the IC50 is greater than 100 nM in assay [1], greater than 10 nM in assay [2] and less than 10 nM in assay [3].

B2: Peptide 210 (peptide)
peptide: Ac-[Pen][NMeR]SDTL[Pen][2Nal]E[dK]-NH2
modifications: disulfide 1-7
SMILES: CC(=O)N[C@@H]1C(=O)N(C)[C@@H](CCCNC(=N)N)C(=O)N[C@@H](CO)C(=O)N[C@@H](CC(=O)O)C(=O)N[C@@H]([C@@H](C)O)C(=O)N[C@@H](CC(C)C)C(=O)N[C@H](C(=O)N[C@@H](Cc2ccc3ccccc3c2)C(=O)N[C@@H](CCC(=O)O)C(=O)N[C@H](CCCCN)C(N)=O)C(C)(C)SSC1(C)C
For the molecule B2, the half-maximal inhibitory concentration (IC50) in assay [4] was 60 nM; in assay [5] it was 517 nM; in assay [1] it was 200 nM; in assay [2], 40 nM; in assay [3], 11 nM.

On to Ac-[Pen][NMeR]SDTL[Pen][2Nal][β3hE]-NH2 (disulfide 1-7 (inferred)) [SEQ ID NO: 155], for which the IC50 in assay [4] is greater than 25 nM; in assay [1], greater than 1000 nM; in assay [2], greater than 25 nM.

Source of the values: US20180148477A1 (published 2018).
